Assay results reported in the domain aggregation screens of Martell et al. (2025).

Experiment: soluble fraction after stress (log2 fold change); higher = more stays soluble; pooled small domains, quantitative proteomics
Details: stress: pH 4
Method in brief: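 Aggregation propensity here comes from the fold change in the soluble amount of each small protein domain after acid stress, measured in pooled custom libraries by high-throughput quantitative proteomics. The acid stress was pH 4. On the log2 scale, higher values mean more of the domain stayed soluble.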

Sequence	soluble fraction (log2)
HMNEIEIHINKLFGKISDSKRKQELMQEITQNLNEKVSDLVSQGQTREQAVKKAIEDFGDIDDLKDELDN	-0.0968
HMGTNTTGWIKIADDWKYIDSNGEYTVNDWRQSADGGWYYLGYNGNMLKNQTTPDGYYVDAEGLWDGMSPA	-2.31
HMTSHPTHTILDGKVHVFMRDGSPFWWGGFHFKGKYLRTSTKQKNLDSAKTIAQQWYFQKQTEIASGE	-0.0801
HMAAQLAHVPAVTGRPLAEAQRILADNRLNAQVTQQPVAEPKLDGVVIAQKITEGTRTMRGATVPLIVGKY	0.148
HMSPTEQEKIGLFIKKLREEKNLTQEAFASLLKTSQSAVARIESGNQNITIEQLMKIGEVLNHNIVSI	-0.215
HMKQNVEAVIKERAIEKARAQVKAVSTHMALEAQSLSKEQLEFEIERIAAQIIDKMPSDFWND	-0.819
HMTKGVWHTVKKGENLYRISLYYEVPQQEIKKANKIETENIVVGQKLFIPNTTKKSPIFALTP	-0.0478
HMTIPSYAEAVRYVRRQPRINTSTLADGLGIRWSLALDYLERMARSGVVGAIEDDGWWPVAR	0.329
HMKGKITTNWVSLTSDLGWLRSELYSSGSVLEERISNEGLIELHLENFQNDLIKLLEVEGFDLIKE	-1.73
HMNDIDRFIEALIEQDTLPGTNSRINEDVISEMKMMTSVEDIKAYAIATVGLTGGQVNNALINSGL	-1.61
HMADLNQTDIDSITKSVGGVEQYKSLMDWAGKTLSQDAIDSFDDLVNTGNKGSIQLAVNGLVAQYQNDN	0.121
HMKKKSYIVSFATDEDAQRFAREGFEVISLSGRQITVSLKGEMMPLVKALGSYQVVGLETVA	-0.72
HMSISDEDFAKLLDFVKEKWDAGELDNAEDIKAAISEGEKEFGVSLDESTRTTLASALQQLN	-0.496
HMRILGIDPGYAITGYSIIDYVGNKFKLIDSGAVLTKAGVSFPLRLTKIYDDLSMIIDEYKPDA	-0.42
HMDSPVEEWANRGLAYDPSLVTETMAKLYAKQGQIGLARKAFKRLALIYPEKSVYFAFQLKKLSNN	0.0712
HMFGDQMQSYLSRLSQIDVDIIALKYGDNFTYREIGLILEMSEDSVRQRAVRARKKLETMIQKG	-1.29
HMDIDLGAVEEQAVKGSGPGGQKMNKTSSGVLLRYRLGEELVLVKWTRERQHSLNRFLALRELVDEIEAR	-0.099
HMGEQLALLERARTLLEDETLETEVQKELEMLLEDIEAARAEANATQLEDLFEELADLLFDLE	-0.193
HMEKYIVNQEEQGKRLDIYVVNKSSELTRTAVQRLIEQEHILVNGRKQKASYKVLEGDIITIERV	-0.649
HMVDPRWETPDENLAEQIKSVMPVMWVYDREAKSFVERPAIDFSFSIFERTTLYIYDKDGNEIGFAR	0.0599
HMSSKIKYSEFITMLDKGEVESVVLKSDTLTITLKHGTGVAAQTKTTTLMEDLSELTKRLEKAGIKDFDK	0.22
HMVSSYTMAIQINGKLRATHDFSVDTSQEDIKKIIINLPAIQKYINGVEIKKFIIVPQKIVNIV	-0.0406
HMSFNISPTKKLILELIMNGTAAVEAIAVKAGISKGMAYNHLRELRSMGYITDEGGYKITDSGRLAV	-0.399
HMEPMLEIFDAKIDLADVLAVESGLVRLRGGAEVTSPRVDVDAGARLELDSGARLNVERLSY	-0.823
HMTDTDVLSSRLSALSSGRTSAVRLRDGVLSLVLDVGGLSIEARKAMTTAIESTARATPGVEAVRIAET	0.278
HMRMTTEQLMSFLKQHFPQVADNFTVRISDEGRLSVEMPVNDKHLRPGGTVSGPSMFALADVAFYLAILQ	-0.349

Sequence	soluble fraction (log2)
HMAGAPANLAARLREQILQGAYHDGQRLPAERHLAAEHGVSRGTVREALRLLEQGALLTRKRGSGSYVTYP	0.006
HMLDKIRTYIDNSFTGVNETKKVKELKDELFENLKEKYNDQIQDGKTEQEAYNSVISGIGDLSELIESVK	-0.0804
HMVVLPGEVLRINVIQEGKEHGQGVGYMDDGTMVVIENGREFIGEYMEVNVTKVLQTAAGRMIFGRVD	-0.917
HMLEIDPPVDEISVSRKAFYEAAGYKVNPYTHIPPRYRKEFEEHSFVVMSWPRELPEETYRKFDRYLRDV	-0.253
HMGDPSSERNIQKSIFILIGEKALSVQDISRSLGMPNDIIDKALISGVERNLWLSSDKGEYYL	-1.04
HMVNYKEILRLSAEGNSQRQIAAGSGNSRNTVIEVLEAARARGITWPLDEPVTNEQLEAILFPNRY	≥ 0.43
HMNGPTPEEKLAVVNAEFVRQYGDEYEELELEGEELEEYYQKALNKEDFEYDIPHLPGWDEP	-0.905
HMAAGELSGEALIALIERHPMALSALATTFGHSESDLRAFVEPLARQGRLRLFESQGTLFVGGIG	0.00392
HMAPAGGITRQDLFAWGLMGGEGSREKRQQLKKSLGLPSHLGTSGFLDALNLIATRDQVEALLHK	≥ 0.43
HMSRVSVDGEEVNFEGEIPDDPSRIYELLMGALSEQSRVVVKFFVDGKDALLDEGFPSRYQMIEAESV	-0.733
HMSVDEVEALYLKIAEDRLEGKLPDKVSESDLMRRYGLTKAQLGAILQRIVHEGWIERTPGHGWRFLPIL	-0.368
HMRDFTQPQTASIGPRMREALARGTMTVEELREQFRTQEFPHESVRTAFLEELERVAAELGLA	-1.62
HMEDDIRSSIRTLDQFISKNQITLSKDVKNYILQLLSNDRMVTINELEKIKIYYDSNENIDLDTVKILLN	-1.4
HMGSLVKLQSAAELHQAGRSAEAVPILLEVLATNPRLVDGWEILANALEKLGRLDEALAALKKTVALSPPG	-1.23
HMNQKTQMTKQILAESLKKLMLHHSFEKITIKDITDAAGFIRPTFYNHFKDKYDLVEWIFTEEI	-0.336
HMPSLSAILHDARVAAGLSMRQASAASGLSIGFISMLEQGKVQDISLQRLGRLVTAYDLEPLDVIEAAG	-0.848
HMVVADFQNYTVKPKENLYSLTKTSGLSQEELVALNPELKNGVQEGMVIKLPAAVKLMAQPE	0.22
HMTHEAEDLNALRMMVRDPIFSSDEPDLQQLRGAVAHAPQFVDRFKELYNDYQRLAEFVQNSL	-1
HMRAVPTKLAPFVEVLKAMLEADGHRPKAQRRTAKALHLELISRGYAGGYTRLTDYIRDWRQQQG	-0.411
HMAAEFERKNGIVYFFHSSEKPHLNYPHVHARYGEDTISISLRDFTVIGSFSSKKKQKEAVEYVKNK	-0.352
HMKNVEEMILGKLKRKVSENLENASFEEIILVDAEKSVYKGIIKANYIEYYFRVNLSTGEVLSWKLK	-0.755
HMRKYEAVPASVVPAQIQEYVAKSNFPNQYIRKIERNKYTWEIELSNGLEIKFDRQFNVIGFD	0.338
HMDSGFMRTTQSYTVARLAEIFRLSGEDYLAVLREYDGWYQDLTSTKDLIRKGSDVPVPEGV	-1.02
HMPELSITDADIIVAGGRGMGSAENFGLIRELAGLLGAAVGASRVVVDAEWVDQKHLIGQTGK	-0.507
HMVEGMQFDRGYQSPYFVTNAEKMVAELDNPYILLVEKKISSMKELLPVLEPVAQQGKSLLIISEEVEG	-0.602
HMGPSEVTLDNFVGKNYTDVVNDTSYQFTFKKEEKSDQTHAAGIIIAQSPKKGIKVKSNSTVTLTVSTG	0.216

Sequence	soluble fraction (log2)
HMRKVTDTHELSSVVKSVIDQWEEKAAEYRAGKSGLLGFFVGEVMKKTGGAADPEAAKSLLQDRLD	-0.285
HMETLKLRDSGKEVQSLQELLQRQGLSAPMNGIFDEATKSSVIAFQKANGLDADGIVGYKSWETLFTAG	-0.349
HMKIETVENPLLERTEISALFDSKSGSLTRKEAIDLISKKARIDSSTVYAIKLSNSSGSTRIIGLFY	0.00271
HMAEVGDFTLAELIKVLFNEAGVLKAPVELRNDNTGGLQYRVGAYTDSETGWETIASIADLKGA	-1.74
HMQESTILPAQKSAISSLATSAGFSSENLKRYLLQNYGVDLKDLTRSQGAEVIKAFQSGNVSKP	0.246
HMTLNTQLFTWKKGVRVGEDDQGNIYYRTKDDKRRWVIFTGETEATKVSPDWHGWLHRTWATPPNK	-0.14
HMHDLGEQIIEKLRASGGISTLTDKSDPDAIYRQFKVSKKKYKQALGTLYKSRRITLAPNQIKLA	0.22
HMDGASLLDIDGDGKVTPTIDGLLLMRWQFGTRGAALIGGISFPAGALRTTVNAIELHMRRLSETT	-1.52
HMHNSQTIIDNIKRIANEQNISLSKLAVISGLGKNTITSMTAKTNIKIETLTAIAKSLNVSIHDLTGE	0.0739
HMNHTIEENDRVLILDPRGKKYLITVTNRVFHTNLGKLDISELIGKNYGDKIKSHMGKNFSILKPNLIDYI	0.053
HMVAISNTSGLAGVAYWIQSNIPKGIDIRKDNPGIVTIKNWIDEEYRKGRTTTISEEEMFKLVREYMPEL	-1.12
HMNTPLYLKIREQIFDALRSGRWAANDPLPSETKLASEFEVSQGTIRKAIDDLVAQNILYRHQGRGTFIRR	0.125
HMRLGQLQSVEEPKFIEVHSGKQGDIGEQTIVEYEIDAKYATGDATINLKLLFRDGLFEIYNFNFSSEALL	-0.259
HMLSTGQLIRYYRKRAGMTQAELAEEVEMSEPGIRNYELGNRTPSKAQLSAIARGLGIEPEALI	-0.0764
HMVTDVDYSTFLSQVEEGKVESVTIEDGEILFKGKDENGEARWYITGEMNDPNLVERLKDKVPSFNAPA	-0.128
HMHSFGLHVRNLRKKSNLTLSQLSNASGLSLSAISKIENNQISPSFINLIRLAEGLKMHIADLVTVK	-0.254
HMEEGKVKRMAMDMVDAFYDKVSAMVDDNNDLGRSVVDAWDDEEENPPEYMLDDETRAILVNAGKIEPE	0.0884
HMKSVILQLHPETLRWIREEAQADMADASVIQLLNDWELGTKKPTLSQVQKLSHETHIPFGYFFLKEKPA	-0.203
HMSPSSPNQILGQYPKTKNDIILSSGRYGPYLKYNKKNYSLGNNISVEKLSLEEAVKIIDLKDKK	0.0926
HMNSEAVQNVIDKISALPDDITAKAKSQIEEARAAYEALSDSEKARVTNYSTLVAAEKKLASVVKD	0.121
HMNSTGVYQRPDGFWEYRFTLSINGKKLPRRKSTDLMGNKLKTKREAIKAREEAIIALRTEKTI	0.4
HMSEQIALQFAKAKQHHTGIALKGIEALELRYKGYTGKEIAALYHTSPKSVFSWISRAKQKLRQN	≥ 0.43
HMKSLLDQINGIGAIRKRALLNHFGSARAVESASLDEIKSVEGVEAKVAKKIYNFFHEYKNMLR	0.0807
HMTGYVMIRVDGLSLEKFLNMAAEAGVRVSDVRRASYTVLYAVVSPRDLKKLQSVAPEKYTVTVR	-0.23
